The star is where a group is joined. Biotin = O=C1N[C@H]2[C@H](CS[C@H]2CCCCC(=O)*)N1

This test addresses 14-3-3 proteins present within the KLCCM. The test can be described thus: cell-based or functional assay.

With Biotin-PHCVPRDLSWLDLEANMCLP-OH (cysteine pairing not given here) [biotinylated R18], the MMP-1 expression in dermal fibroblasts treated with KLCCM (western blot, MMP-1/β-actin ratio) is 68.8 % reduction.

Source of the values: patent publication US20110027269A1.
